This passage reports Kd results from publication PMC6748581.

Test in all cases: SPR
For orientation: SPR reads the build-up and loss of mass on a sensor chip optically.

In test [1] the target is Anti-IL-13 IgG1 ΔK-P221 IgA2m1 Fc Dimer (human) (UniProt P01591).
Test [2] addresses anti-mIL-13 IgA2m1 P221R Monomer (human).
The target of test [3] is anti-mIL-13 IgA2m1 Dimer (human) (UniProt P01591).
The target of test [4] is anti-mIL-13 IgA2m1 Monomer (human).
Test [5] concerns the target anti-mIL-13 IgA1 Monomer (human).
In test [6] the target is anti-mIL-13 IgA2m2 Dimer (human) (UniProt P01591).
The target in test [7] is anti-mIL-13 IgA1 Dimer (human) (UniProt P01591).
For test [8], the target named is anti-mIL-13 IgA2m2 Tetramer (human) (UniProt P01591).
Test [9] deals with anti-mIL-13 IgA2m2 Monomer (human).
In test [10] the target is Anti-IL-13 IgG1 ΔK-C242 IgA2m1 Fc Dimer (human) (UniProt P01591).
In test [11] the target is anti-mIL-13 IgA2m1 P221R Dimer (human) (UniProt P01591).
Test [12] has as its target anti-mIL-13 human IgG1 (human).
The target in test [13] is Anti-HER2 IgA2m2 Polymer Aglycosylated (human) (UniProt P01591).

As for “human Fc alpha receptor 1 (from UniProt P24071)”, the dissociation constant Kd – broadly, the constant that tells how readily two partners part at equilibrium – came out at 1070 nM in test [1]; 443 nM in test [2]; 499 nM in test [3]; 429 nM in test [4]; 425 nM in test [5]; 597 nM in test [6]. The dissociation constant (Kd) in test [7] was 369 nM; in [8], 533 nM; in test [9] it was 455 nM; in test [10] it was 938 nM; in test [11], 462 nM.
For the molecule “human FcRn co-expressed with human beta-2 microglobulin (from UniProt P55899;P61769) (complex)”, the Kd in test [1] was determined as 8400 nM; in test [12], 9800 nM; in test [10], 9900 nM.
“human polymeric immunoglobulin receptor (from UniProt P01833)”: the Kd in [1] came to 7.67 nM; in test [3] it was 5.05 nM; in test [13] it was 0.72 nM; in [6], 13.9 nM; in test [7], 8.8 nM; in test [8], 1.93 nM. The dissociation constant (Kd) in test [10] came to 4.41 nM; in [11], 15.5 nM.
Turning to “mouse FcRn co-expressed with mouse beta-2 microglobulin (from UniProt Q61559;P01887) (complex)”, the dissociation constant (Kd) in [1] was 6800 nM; in test [12] it was 7800 nM; in test [10] it was 7400 nM.
In the case of “mouse polymeric immunoglobulin receptor (from UniProt O70570)”, in test [13], the dissociation constant (Kd) amounted to 0.55 nM.

B1: mouse polymeric immunoglobulin receptor (receptor)
chain: KSPIFGPQEVSSIEGDSVSITCYYPDTSVNRHTRKYWCRQGASGMCTTLISSNGYLSKEYSGRANLINFPENNTFVINIEQLTQDDTGSYKCGLGTSNRGLSFDVSLEVSQVPELPSDTHVYTKDIGRNVTIECPFKRENAPSKKSLCKKTNQSCELVIDSTEKVNPSYIGRAKLFMKGTDLTVFYVNISHLTHNDAGLYICQAGEGPSADKKNVDLQVLAPEPELLYKDLRSSVTFECDLGREVANEAKYLCRMNKETCDVIINTLGKRDPDFEGRILITPKDDNGRFSVLITGLRKEDAGHYQCGAHSSGLPQEGWPIQTWQLFVNEESTIPNRRSVVKGVTGGSVAIACPYNPKESSSLKYWCRWEGDGNGHCPVLVGTQAQVQEEYEGRLALFDQPGNGTYTVILNQLTTEDAGFYWCLTNGDSRWRTTIELQVAEATREPNLEVTPQNATAVLGETFTVSCHYPCKFYSQEKYWCKWSNKGCHILPSHDEGARQSSVSCDQSSQLVSMTLNPVSKEDEGWYWCGVKQGQTYGETTAIYIAVEERTRGSSHVNPTDANARAKVALEEEVVDSSISEKENKAIPNPGPFANEREIQNVGDQAQENRASGDAGSADGQSRSSSSK
For B1, the dissociation constant (Kd) in test [1] came out at 3.32 nM; in test [3], 2.54 nM; in [6] it was 2.45 nM; in [7], 2.66 nM; in test [8], 0.69 nM; in [10], 3.32 nM. The dissociation constant Kd in test [11] turned out to be 5.59 nM.
